Legend:
Assay in all cases: cell-based or functional assay
[1] = target: T1, MERTK (cMER) (UniProt Q12866 578-872, limits assumed)
T1 sequence (looked up): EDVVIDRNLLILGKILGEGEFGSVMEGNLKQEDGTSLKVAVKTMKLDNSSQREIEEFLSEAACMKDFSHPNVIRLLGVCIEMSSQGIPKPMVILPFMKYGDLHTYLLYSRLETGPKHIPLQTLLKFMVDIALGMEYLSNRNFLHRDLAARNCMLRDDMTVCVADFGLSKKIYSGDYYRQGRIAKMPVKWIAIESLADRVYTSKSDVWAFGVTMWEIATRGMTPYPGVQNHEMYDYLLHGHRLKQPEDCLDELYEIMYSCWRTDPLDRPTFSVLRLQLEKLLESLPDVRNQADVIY

[2] = target: NEK6 NIMA (never in mitosis gene a)-related kinase 6 (UniProt Q9HC98 1-313, limits assumed)
NEK6 NIMA (never in mitosis gene a)-related kinase 6, sequence (Q9HC98 whole entry): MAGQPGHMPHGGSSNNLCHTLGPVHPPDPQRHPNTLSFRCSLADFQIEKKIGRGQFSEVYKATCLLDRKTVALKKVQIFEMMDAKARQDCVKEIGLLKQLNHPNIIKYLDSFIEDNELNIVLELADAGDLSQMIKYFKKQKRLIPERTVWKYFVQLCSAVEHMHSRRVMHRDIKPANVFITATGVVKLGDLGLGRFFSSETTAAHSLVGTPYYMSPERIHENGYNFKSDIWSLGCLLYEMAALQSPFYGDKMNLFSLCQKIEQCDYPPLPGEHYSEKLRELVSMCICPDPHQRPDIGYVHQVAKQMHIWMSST

[3] = target: TEK (Tie2) Tyrosine kinase, endothelial (UniProt Q02763 771-1124, limits assumed)
TEK (Tie2) Tyrosine kinase, endothelial, sequence (Q02763 771-1124 limits assumed): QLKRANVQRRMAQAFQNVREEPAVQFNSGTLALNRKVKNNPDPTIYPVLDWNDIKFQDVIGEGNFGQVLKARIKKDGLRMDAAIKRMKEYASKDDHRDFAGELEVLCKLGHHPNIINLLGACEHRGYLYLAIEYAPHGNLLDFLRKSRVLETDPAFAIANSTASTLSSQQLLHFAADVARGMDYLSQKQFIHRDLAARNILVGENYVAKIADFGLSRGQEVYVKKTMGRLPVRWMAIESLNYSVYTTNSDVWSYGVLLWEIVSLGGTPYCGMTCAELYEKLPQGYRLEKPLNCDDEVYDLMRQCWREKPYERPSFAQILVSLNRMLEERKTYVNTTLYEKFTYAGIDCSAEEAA

[4] = target: MAP2K1 (MEK1) (UniProt Q02750 1-393, limits assumed)
[5] = target: MAPK9 (JNK2) Mitogen-activated protein kinase 9 (UniProt P45984 1-424, limits assumed)
[6] = target: T2, PRKCN (PKD3) (UniProt O94806 1-890, limits assumed)
T2 sequence (looked up): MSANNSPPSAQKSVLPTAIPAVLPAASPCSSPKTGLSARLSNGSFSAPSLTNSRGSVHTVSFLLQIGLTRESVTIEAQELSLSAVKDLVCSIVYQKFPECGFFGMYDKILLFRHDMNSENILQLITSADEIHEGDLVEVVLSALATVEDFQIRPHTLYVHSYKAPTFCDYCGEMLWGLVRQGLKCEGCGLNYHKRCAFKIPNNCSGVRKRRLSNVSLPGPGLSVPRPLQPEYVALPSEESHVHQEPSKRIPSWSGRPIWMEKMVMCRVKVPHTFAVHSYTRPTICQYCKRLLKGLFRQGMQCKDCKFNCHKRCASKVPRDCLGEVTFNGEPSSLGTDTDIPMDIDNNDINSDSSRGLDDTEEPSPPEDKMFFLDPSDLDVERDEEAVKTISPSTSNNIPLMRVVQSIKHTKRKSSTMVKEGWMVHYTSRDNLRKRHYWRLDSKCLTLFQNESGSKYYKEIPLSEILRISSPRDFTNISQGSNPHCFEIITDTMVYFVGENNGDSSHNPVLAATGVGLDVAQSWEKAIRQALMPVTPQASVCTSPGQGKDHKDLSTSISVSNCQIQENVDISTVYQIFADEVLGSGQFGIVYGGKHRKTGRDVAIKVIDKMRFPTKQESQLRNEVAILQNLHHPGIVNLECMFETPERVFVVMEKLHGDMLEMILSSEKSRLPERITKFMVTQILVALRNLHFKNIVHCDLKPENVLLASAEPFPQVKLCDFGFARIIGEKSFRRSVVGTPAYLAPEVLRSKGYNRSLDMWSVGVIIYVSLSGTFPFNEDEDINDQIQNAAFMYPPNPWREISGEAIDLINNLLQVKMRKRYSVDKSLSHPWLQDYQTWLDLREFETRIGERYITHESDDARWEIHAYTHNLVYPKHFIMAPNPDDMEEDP

[7] = target: T3, NEK2 (UniProt P51955 1-445, limits assumed)
T3 sequence (looked up): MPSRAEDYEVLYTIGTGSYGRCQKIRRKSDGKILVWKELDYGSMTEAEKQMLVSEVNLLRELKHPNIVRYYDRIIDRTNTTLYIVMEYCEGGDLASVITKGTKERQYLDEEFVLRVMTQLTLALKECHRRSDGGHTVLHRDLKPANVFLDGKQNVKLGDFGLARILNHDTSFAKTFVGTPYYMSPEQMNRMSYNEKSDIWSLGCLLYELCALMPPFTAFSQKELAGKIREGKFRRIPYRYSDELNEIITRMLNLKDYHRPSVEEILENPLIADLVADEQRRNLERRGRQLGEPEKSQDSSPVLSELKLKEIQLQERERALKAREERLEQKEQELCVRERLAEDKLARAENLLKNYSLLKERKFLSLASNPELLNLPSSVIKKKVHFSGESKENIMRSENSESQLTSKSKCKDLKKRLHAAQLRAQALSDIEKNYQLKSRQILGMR

[8] = target: MAPKAPK2 Mitogen-activated protein kinase-activated protein kinase 2 (UniProt P49137 1-400, limits assumed)
MAPKAPK2 Mitogen-activated protein kinase-activated protein kinase 2, sequence (P49137 whole entry): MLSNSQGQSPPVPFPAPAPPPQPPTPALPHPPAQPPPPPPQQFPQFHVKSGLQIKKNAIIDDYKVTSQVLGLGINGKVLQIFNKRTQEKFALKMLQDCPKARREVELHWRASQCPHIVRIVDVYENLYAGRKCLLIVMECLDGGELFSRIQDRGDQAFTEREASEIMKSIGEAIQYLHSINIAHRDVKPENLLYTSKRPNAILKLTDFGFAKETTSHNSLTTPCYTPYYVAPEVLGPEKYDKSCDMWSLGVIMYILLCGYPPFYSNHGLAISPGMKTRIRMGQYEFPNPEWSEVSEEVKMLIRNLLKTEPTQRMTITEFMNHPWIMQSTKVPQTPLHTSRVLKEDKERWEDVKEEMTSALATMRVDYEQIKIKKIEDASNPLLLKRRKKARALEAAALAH

[9] = target: CAMK1D (CaMKI delta) Calcium/calmodulin-dependent protein kinase I delta (UniProt Q8IU85 1-385, limits assumed)
CAMK1D (CaMKI delta) Calcium/calmodulin-dependent protein kinase I delta, sequence (Q8IU85 whole entry, stated change not applied): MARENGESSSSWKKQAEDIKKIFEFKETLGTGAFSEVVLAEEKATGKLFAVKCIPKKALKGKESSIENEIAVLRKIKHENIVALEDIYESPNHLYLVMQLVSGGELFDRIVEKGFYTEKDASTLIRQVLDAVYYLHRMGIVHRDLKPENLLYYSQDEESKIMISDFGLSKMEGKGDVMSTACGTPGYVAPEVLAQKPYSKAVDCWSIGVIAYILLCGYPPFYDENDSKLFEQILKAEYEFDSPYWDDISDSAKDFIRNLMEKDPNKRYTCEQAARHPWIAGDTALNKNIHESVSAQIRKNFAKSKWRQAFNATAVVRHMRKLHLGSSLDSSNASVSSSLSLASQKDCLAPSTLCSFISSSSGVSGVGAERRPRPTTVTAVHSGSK

## SGRPPMIVWFNRPFLIAVSHTHGQTILFMAKVINPVGA [D3 peptide]
[1]
  % Inhibition mean: 79.5%
[2]
  % Inhibition mean: 97.4%
[3]
  % Inhibition mean: 67%
[4]
  % Inhibition mean: 94%
[5]
  % Inhibition mean: 92.9%
[6]
  % Inhibition mean: 69.6%
[7]
  % Inhibition mean: 89.6%
[8]
  % Inhibition mean: 58%
[9]
  % Inhibition mean: 98%
